Test results published in patent publication US20190284287A1 (TUSK THERAPEUTICS, published 2019).
Substitutions are numbered along the chain they refer to. Blank lines part the entries; values can stand above or below the binder they belong to.

Experiments:
[1] = target: T1, recombinant human CD25 extracellular protein sequence (rhCD25) (human, UniProt P01589 22-240); assay: method not given; upper end of the stated range
T1 construct: also called human CD25 antigen
T1 sequence: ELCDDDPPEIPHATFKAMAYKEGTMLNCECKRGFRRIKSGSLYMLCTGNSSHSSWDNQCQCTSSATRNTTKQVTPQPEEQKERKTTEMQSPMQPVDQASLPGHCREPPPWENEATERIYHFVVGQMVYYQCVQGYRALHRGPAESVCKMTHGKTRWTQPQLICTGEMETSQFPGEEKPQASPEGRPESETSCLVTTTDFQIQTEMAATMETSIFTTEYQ

[2] = target: T2, human CD25 expressed on cells (human, UniProt P01589 22-272); assay: flow cytometry on CD3/CD28 bead activated human Pan T cells, gated on CD8+ T cells
T2 construct: Endogenous CD25 on human cell lines and primary cells
T2 sequence: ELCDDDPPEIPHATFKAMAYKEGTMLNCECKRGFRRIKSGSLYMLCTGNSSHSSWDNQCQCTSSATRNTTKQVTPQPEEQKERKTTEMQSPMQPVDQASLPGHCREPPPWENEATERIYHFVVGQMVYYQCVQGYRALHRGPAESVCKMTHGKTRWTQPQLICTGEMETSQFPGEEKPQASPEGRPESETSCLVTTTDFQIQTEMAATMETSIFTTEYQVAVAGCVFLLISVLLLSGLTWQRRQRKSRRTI
Method: (§1) Binding to CD25 expressing activated human and Cynomolgus monkey PMBC was examined by staining test articles (anti-CD25 primary antibodies) with 20 μg/ml antibodies followed by semi-log dilution series (7-point) for 30 minutes on ice. This was followed by staining with a secondary antibody (rabbit anti-human Fcg F(ab′)2—(Jackson ImmunoResearch)) concentration of 5 μg/ml for 30 minutes on ice. All samples were stained in triplicates. To minimize cross-linking induced cell death mediated by binding of the secondary antibody, cell lines were examined in staining cohorts of 4 test articles at a time. Live lymphocytes were gated using FSC vs SSC parameters by flow cytometry during sample acquisition. Mean fluorescence intensity (MFI) of gated CD4⁺ and CD8⁺ T cell subsets were plotted on an XY chart, graphing MFI against the log of the concentration, and the data fit to a non-linear regression curve from which the EC50 was calculated.

[3] = target: T2, human CD25 expressed on cells; assay: flow cytometry on human in vitro differentiated Treg cells, Alexa Fluor 647 anti-human IgG secondary
Method: Binding to CD25 expressing in vitro differentiated Tregs was examined by staining test articles (anti-CD25 primary antibodies) with 30 μg/ml antibodies followed by semi-log dilution series (7-point) for 30 minutes on ice. […] All samples were stained in duplicates. Live cells were gated using FSC vs SSC parameters by flow cytometry during sample acquisition. Mean fluorescence intensity (MFI) of stained cells were plotted on an XY chart, graphing MFI against the log of the concentration, and the data fit to a non-linear regression curve from which the EC50 is calculated.

[4] = target: T3, recombinant human CD25 his tagged (human, UniProt P01589 22-240); assay: SPR, Biacore 2000; antibody captured by anti-human antibody, rhCD25-His as analyte, two state fit
T3 construct: also called rhCD25-his tag; not shown: His tag
T3 sequence: T1 sequence

[5] = target: T3, recombinant human CD25 his tagged; assay: BLI, ForteBio Octet Red96; IgG on AHC sensors, rhCD25-His in solution, 1:1 fit
Method: Sensors were equilibrated off-line in assay buffer for 10 min and then monitored on-line for 60 seconds for baseline establishment. […] Then, 1:3 serial dilutions (from 1 uM to 4 nM) of recombinant human CD25 HIS tagged was associated to the loaded IgG for 10 min. Afterwards they were transferred to assay buffer for 6.6 min for off-rate measurement. Kinetics data were fit using a global 1:1 binding model in the ForteBio Data Analysis Software 9.0 with reference subtraction.

[6] = target: T4, human CD25 antigen, R&D Systems cat no. 223-2A/CF (~10% dimer) (human, UniProt P01589 22-240, limits assumed); assay: SPR, Biacore T200; antibody captured by anti-human Fab, CD25 as analyte, Two State Reaction fit; column 'Binding strength' (affinity and/or avidity)
T4 construct: also called R&D Systems (~10% dimer); huCD25 (IL2R alpha)
T4 sequence: T1 sequence
Method: (§2) Binding of CD25 antibodies to human CD25 antigen was investigated by surface plasmon resonance using a BIACORE T200 instrument (GE Healthcare).
(§3) The flow cell was set to 25° C. and the sample compartment to 12° C. The CD25 antibody was captured by injecting a 3 μg/ml solution for 60 sec at a flow rate of 10 μl/min. Association of CD25 antigen was measured by injection of human CD25 solutions for 180 sec at a flow rate of 30 μl/min starting with a concentration of 1000 nM down to 1 nM in 1:10 dilution steps. The dissociation phase was triggered by switching from sample solution injection to running buffer and monitored for up to 600 seconds. The surface was regenerated by washing with two consecutive 1-minute injections of 10mM glycine pH 2.1 (provided by the kit) at a flow rate of 10 μl/min. Bulk refractive index differences were corrected by subtracting the response obtained from an anti-human Fab reference surface; blank injections are also subtracted (=double referencing).
(§4) For calculation of KD and kinetic parameters Biacore provided fitting models were used to obtain optimal curve fitting results. The 1:1 Langmuir fit was used for P1AA5872 and the Two State Kinetic fitting for CD25 from Sino Biologicals and R&D Systems.

[7] = target: T5, inhouse produced monomeric human CD25 antigen (P1AA5872) (human, UniProt P01589 22-240, limits assumed); assay: SPR, Biacore T200; antibody captured by anti-human Fab, monomeric CD25 as analyte, 1:1 Langmuir fit; column 'Binding strength'
T5 construct: also called Inhouse (0% dimer)
T5 sequence: T1 sequence
Method: as §2, §3, §4

[8] = target: T2, human CD25 expressed on cells; assay: cell-based or functional assay
[9] = target: T1, recombinant human CD25 extracellular …; assay: method not given; lower end of the stated range
[10] = target: T2, human CD25 expressed on cells; assay: flow cytometry on Karpas 299 cells, Alexa Fluor 647 anti-human IgG Fc secondary [B); D00021 Figure 21 cont. C), D), E]
Method: Binding to CD25 expressing Karpas299 cells was examined by staining test articles (anti-CD25 primary antibodies) with 20 μg/ml antibodies followed by semi-log dilution series (7-point) for 30 minutes on ice. […] All samples were stained in duplicates. Live cells were gated using FSC vs SSC parameters by flow cytometry during sample acquisition. Mean fluorescence intensity (MFI) of stained cells were plotted on an XY chart, graphing MFI against the log of the concentration, and the data fit to a non-linear regression curve from which the EC50 is calculated.

[11] = target: T2, human CD25 expressed on cells; assay: flow cytometry on CD3/CD28 bead activated human Pan T cells, gated on CD4+ T cells
Method: as §1

[12] = target: T6, human CD25 antigen, Sino Biologicals cat no. 10165-H08H (~20% dimer) (human, UniProt P01589 22-213); assay: SPR, Biacore T200; antibody captured by anti-human Fab, CD25 as analyte, Two State Reaction fit; column 'Binding strength' (affinity and/or avidity); Sino Biological CD25 (~20% dimer), Two State Reaction fit; affinity and/or avidity
T6 construct: Bought antigen; also called Sino biological (~20% dimer)
T6 sequence: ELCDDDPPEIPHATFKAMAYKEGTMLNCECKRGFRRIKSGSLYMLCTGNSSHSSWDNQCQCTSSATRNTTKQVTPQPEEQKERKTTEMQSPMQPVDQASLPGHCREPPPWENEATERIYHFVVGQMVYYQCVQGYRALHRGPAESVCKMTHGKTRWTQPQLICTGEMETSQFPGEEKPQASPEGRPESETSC
From the text: as §2, §4

[13] = target: T3, recombinant human CD25 his tagged; assay: SPR, Biacore 2000: IgG1 captured on an anti-human antibody CM-5 chip, rhCD25-his tag as analyte
[14] = target: T3, recombinant human CD25 his tagged; assay: as above; remark: listed apart in the source
[15] = target: T3, recombinant human CD25 his tagged; assay: as above; remark: listed apart in the source
[16] = target: T3, recombinant human CD25 his tagged; assay: as above; remark: listed apart in the source
[17] = target: T3, recombinant human CD25 his tagged; assay: as above; remark: listed apart in the source
Method: Anti-human antibody was initially immobilised across all flow cells in analysis buffer (pH 7.4, 10 mM HEPES, 150 mM NaCl, 3 mM EDTA, 0.05% Tween 20) to an RU of between 12,000-14,000 over 10 minutes. […] Dissociation was performed in analysis buffer over 10 minutes. Regeneration steps between sample concentrations were performed in 10 mM Glycin pH1.7 for 10 minutes. A flow rate of 25 μl/min was maintained throughout the process. Kinetics data were fit using a global two state reaction conformational change analysis software provided by Biacore with reference subtraction.

ADCC of iTregs by IL-2 activated NK cells: EC50 [8]: 0.01 uG/mL
B2: afucosylated aCD25-a-686 (antibody, human IgG1, V domains shown)
VH: QVQLVQSGAEVKKPGSSVKVSCKASGGTFSSLAISWVRQAPGQGLEWMGGIIPIFGTANYAQKFQGRVTITADESTSTAYMELSSLRSEDTAVYYCARGGSVSGTLVDFDIWGQGTMVTVSS
VL: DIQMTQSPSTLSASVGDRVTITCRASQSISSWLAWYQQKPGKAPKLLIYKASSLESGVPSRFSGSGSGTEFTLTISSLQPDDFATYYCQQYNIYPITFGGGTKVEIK
modifications: Fc glycan afucosylated (>99% of a-fucosylation by LC/MS)

Kd [13]: 0.76 nM
B3: aCD25-a-686-m4 (antibody, IgG1, V domains shown)
VH: B2 VH with S31A, I54L, T57R
VL: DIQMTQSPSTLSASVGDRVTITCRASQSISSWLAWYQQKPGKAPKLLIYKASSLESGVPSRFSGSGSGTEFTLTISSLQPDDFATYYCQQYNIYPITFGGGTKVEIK

Kd [15]: 0.66 nM
B5: aCD25-a-686-m5 (antibody, IgG1, V domains shown)
VH: B2 VH with S35F, I54V, T57Q, A72V
VL: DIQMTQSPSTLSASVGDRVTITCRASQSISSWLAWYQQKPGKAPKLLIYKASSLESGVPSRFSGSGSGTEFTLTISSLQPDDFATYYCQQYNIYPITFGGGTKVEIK

Kd [17]: 0.34 nM
B7: aCD25-a-686-m3 (antibody, IgG1, V domains shown)
VH: B2 VH with T57D, F64L, I70M, A72T, E74T, S84R, E89D
VL: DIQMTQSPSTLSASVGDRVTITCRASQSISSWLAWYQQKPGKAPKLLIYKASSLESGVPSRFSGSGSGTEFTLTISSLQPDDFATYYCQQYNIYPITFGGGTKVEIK

Continued, binder first:

B1: aCD25-a-686 (antibody, V domains shown)
VH: B2 VH
VL: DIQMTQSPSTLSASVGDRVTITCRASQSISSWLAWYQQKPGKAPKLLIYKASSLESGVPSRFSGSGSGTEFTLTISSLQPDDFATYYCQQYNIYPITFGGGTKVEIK
notes: not shown: human IgG1 heavy chain constant region (P01857); human kappa light chain constant region (P01834)
Kd [1]: ≤ 10 nM | EC50 (read off the curve) [2]: ~0.5 µg/mL | EC50 (read off the curve) [3]: ~1 µg/mL | Kd [4]: 3.2 nM | Kd [5]: 2.33 nM | Kd [6]: 5.8 nM | Kd [7]: 244 nM | ADCC of iTregs by IL-2 activated NK cells: EC50 [8]: 0.21 uG/mL | Kd [9]: ≥ 0.1 nM | EC50 (read off the curve) [10]: ~0.5 µg/mL | EC50 (read off the curve) [11]: ~0.4 µg/mL | Kd [12]: 2.5 nM

B4: aCD25-a-686-m2 (antibody, IgG1, V domains shown)
VH: B2 VH with S35T, T57D, N59S
VL: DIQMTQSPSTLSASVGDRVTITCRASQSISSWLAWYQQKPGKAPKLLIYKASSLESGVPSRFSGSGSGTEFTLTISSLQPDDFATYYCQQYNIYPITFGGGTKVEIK
Kd [14]: 1.9 nM

B6: aCD25-a-686-m1 (antibody, IgG1, V domains shown)
VH: B2 VH with G50A, I54V, N59S
VL: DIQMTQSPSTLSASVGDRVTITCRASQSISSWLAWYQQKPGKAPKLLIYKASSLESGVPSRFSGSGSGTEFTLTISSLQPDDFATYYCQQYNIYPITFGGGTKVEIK
notes: also called aCD25-a-686-ml; aCD25-a-686ml
Kd [16]: 0.97 nM
